Laboratory results taken from publication PMC4648099.

Tests used:
[1] = biological target: T1, thrombin (alpha-thrombin) (UniProt P00734;P00734 328-363;364-622); assay: competition (FAM fluorescence displacement); fit of pair TBA-FAM/TBA; 100 mM KCl; Fluorescence assays: 10 mM sodium cacodylate pH 7.2, 100 mM KCl, 20 °C, 20 nM FAM-aptamer (100 nM thrombin in displacement); EMSA: 1xTBE pH 8.3, 100 mM KCl (ann)
[2] = biological target: T1, thrombin (alpha-thrombin); assay: competition (FAM fluorescence displacement); fit of pair TBA-FAM/TBA-N8; 100 mM KCl; Fluorescence assays: 10 mM sodium cacodylate pH 7.2, 100 mM KCl, 20 °C, 20 nM FAM-aptamer (100 nM thrombin in displacement); EMSA: 1xTBE pH 8.3, 100 mM KCl (ann)
[3] = biological target: T1, thrombin (alpha-thrombin); assay: competition (FAM fluorescence displacement); TBA-FAM Kd fixed at 15 nM; 100 mM KCl; Fluorescence assays: 10 mM sodium cacodylate pH 7.2, 100 mM KCl, 20 °C, 20 nM FAM-aptamer (100 nM thrombin in displacement); EMSA: 1xTBE pH 8.3, 100 mM KCl (ann)

| Binder | Kd [1] | Kd [2] | Kd [3] |
| --- | --- | --- | --- |
| GGTTGGTGTGGTTGG (structured_DNA, 3' hexaethyleneglycol linker) [TBA-FAM] | 11.3 nM | 18.3 nM |  |
| GGTTGGTGTGGTTGG (structured_DNA) [TBA] | 15.8 nM |  | 23.7 nM |
